Two molecules from patent US20090304719A1 can be followed below.

The target of test [1] is VEGF (UniProt P15692). Put plainly: FACS, clone displayed on E. coli (CPX), labeled VEGF; with MMP-2 against without (FIG. 23). Background: In flow cytometry, cells or beads pass a laser one at a time.
Test [2] deals with VEGF (UniProt P15692). The test is described as follows: FACS, clone displayed on E. coli (CPX), labeled VEGF; MMP-2 treated against untreated (FIG. 25).
In the next test the target is anti-VCAM-1 scFv. The test is described as follows: FACS, peptide displayed on bacteria, 50 nM biotinylated anti-VCAM scFv then 1 nM anti-biotin PE; background without scFv printed as 142.

Where no end group is shown, it is not given here. CPX display scaffold = circularly permuted E. coli OmpX display scaffold

Sequence of VEGF (P15692 other isoform, or with tags, fused parts or gaps limits assumed): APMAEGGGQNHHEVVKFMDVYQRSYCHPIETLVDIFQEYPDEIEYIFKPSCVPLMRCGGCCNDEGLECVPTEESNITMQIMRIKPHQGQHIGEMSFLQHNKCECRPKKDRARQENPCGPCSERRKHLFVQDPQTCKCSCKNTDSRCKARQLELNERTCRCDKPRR

Take GQSGQCEYAFGPLGLAGGGSGNFGYGKWEWDYGKWLEKVGGC-{CPX display scaffold} (designed binder, not shown: large carriers; small tags and cut ends, not fully specified; cysteine pairing not given here) [ABP library clone 2-3B-5]: the fold increase in fluorescence in the presence of MMP-2 in the test with VEGF [1] worked out at 11.8 fold. This molecule also came in with a fold increase in fluorescence after enzyme cleavage with VEGF [2] of 10 fold.
GVVLTTMNFWDWITV [BBB-08] had an average fluorescence value with anti-VCAM-1 scFv of 2620.
